Among the data in PMC12112590 are transcription stimulation with calf thymus DNA and yeast Pol II ([α-32P]CTP incorporation), against wild-type hNDF values, retold here.

In the experiment the target is S. cerevisiae RNA Polymerase II (Pol II) (S. cerevisiae) (UniProt P04050).

B1: full-length hNDF mutant MT1 (natural protein)
chain: MAAVSLRLGDLVWGKLGRYPPWPGKIVNPPKDLKKPRGKKCFFVKFFGTEDHAWIKVEQLKPYHAHKEEMIKINKGKRFQQAVDAVEEFLRRAKGKDQTSSHNSSDDKNRRNSSEERSRPNSGDEKRKLSLSEGKVKKNMAAAAARVSSGSSERGSKSPLKRAQEQSPRKRGRPPKDEKDLTIPESSTVKGMMAGPMAAFKWQPTASEPVKDADPHFHHFLLSQTEKPAVCYQAITKKLKICEEETGSTSIQAADSTAVNGSITPTDKKIGFLGLGLMGSGIVSNLLKMGHTVTVWNRTAEKCDLFIQEGARLGRTPAEVVSTCDITFACVSDPKAAKDLVLGPSGVLQGIRPGKCYVDMSTVDADTVTELAQVIVSRGGRFLEAPVSGNQQLSNDGMLVILAAGDRGLYEDCSSCFQAMGKTSFFLGEVGNAAKMMLIVNMVQGSFMATIAEGLTLAQVTGQSQQTLLDILNQGQLASIFLDQKCQNILQGNFKPDFYLKYIQKDLRLAIALGDAVNHPTPMAAAANEVYKRAKALDQSDNDMSAVYRAYIH
Consider B1, for which the transcription stimulation with calf thymus DNA and yeast Pol II ([α-32P]CTP incorporation), against wild-type hNDF stood at 50 % reduction.

B2: full-length hNDF mutant MT2 (residues 146–150) (natural protein)
chain: MAAVSLRLGDLVWGKLGRYPPWPGKIVNPPKDLKKPRGKKCFFVKFFGTEDHAWIKVEQLKPYHAHKEEMIKINKGKRFQQAVDAVEEFLRRAKGKDQTSSHNSSDDKNRRNSSEERSRPNSGDEKRKLSLSEGKVKKNMGEGKKAAAAASSERGSKSPLKRAQEQSPRKRGRPPKDEKDLTIPESSTVKGMMAGPMAAFKWQPTASEPVKDADPHFHHFLLSQTEKPAVCYQAITKKLKICEEETGSTSIQAADSTAVNGSITPTDKKIGFLGLGLMGSGIVSNLLKMGHTVTVWNRTAEKCDLFIQEGARLGRTPAEVVSTCDITFACVSDPKAAKDLVLGPSGVLQGIRPGKCYVDMSTVDADTVTELAQVIVSRGGRFLEAPVSGNQQLSNDGMLVILAAGDRGLYEDCSSCFQAMGKTSFFLGEVGNAAKMMLIVNMVQGSFMATIAEGLTLAQVTGQSQQTLLDILNQGQLASIFLDQKCQNILQGNFKPDFYLKYIQKDLRLAIALGDAVNHPTPMAAAANEVYKRAKALDQSDNDMSAVYRAYIH
In turn, B2 had a transcription stimulation with calf thymus DNA and yeast Pol II ([α-32P]CTP incorporation), against wild-type hNDF of 50 % reduction.

B3: full-length hNDF mutant MT3 (natural protein)
chain: MAAVSLRLGDLVWGKLGRYPPWPGKIVNPPKDLKKPRGKKCFFVKFFGTEDHAWIKVEQLKPYHAHKEEMIKINKGKRFQQAVDAVEEFLRRAKGKDQTSSHNSSDDKNRRNSSEERSRPNSGDEKRKLSLSEGKVKKNMGEGKKRVSSGAAAAASKSPLKRAQEQSPRKRGRPPKDEKDLTIPESSTVKGMMAGPMAAFKWQPTASEPVKDADPHFHHFLLSQTEKPAVCYQAITKKLKICEEETGSTSIQAADSTAVNGSITPTDKKIGFLGLGLMGSGIVSNLLKMGHTVTVWNRTAEKCDLFIQEGARLGRTPAEVVSTCDITFACVSDPKAAKDLVLGPSGVLQGIRPGKCYVDMSTVDADTVTELAQVIVSRGGRFLEAPVSGNQQLSNDGMLVILAAGDRGLYEDCSSCFQAMGKTSFFLGEVGNAAKMMLIVNMVQGSFMATIAEGLTLAQVTGQSQQTLLDILNQGQLASIFLDQKCQNILQGNFKPDFYLKYIQKDLRLAIALGDAVNHPTPMAAAANEVYKRAKALDQSDNDMSAVYRAYIH
The molecule B3 had a transcription stimulation with calf thymus DNA and yeast Pol II ([α-32P]CTP incorporation), against wild-type hNDF of 50 % reduction.

B4: full-length hNDF mutant MT4 (residues 156–160) (natural protein)
chain: MAAVSLRLGDLVWGKLGRYPPWPGKIVNPPKDLKKPRGKKCFFVKFFGTEDHAWIKVEQLKPYHAHKEEMIKINKGKRFQQAVDAVEEFLRRAKGKDQTSSHNSSDDKNRRNSSEERSRPNSGDEKRKLSLSEGKVKKNMGEGKKRVSSGSSERGAAAAAKRAQEQSPRKRGRPPKDEKDLTIPESSTVKGMMAGPMAAFKWQPTASEPVKDADPHFHHFLLSQTEKPAVCYQAITKKLKICEEETGSTSIQAADSTAVNGSITPTDKKIGFLGLGLMGSGIVSNLLKMGHTVTVWNRTAEKCDLFIQEGARLGRTPAEVVSTCDITFACVSDPKAAKDLVLGPSGVLQGIRPGKCYVDMSTVDADTVTELAQVIVSRGGRFLEAPVSGNQQLSNDGMLVILAAGDRGLYEDCSSCFQAMGKTSFFLGEVGNAAKMMLIVNMVQGSFMATIAEGLTLAQVTGQSQQTLLDILNQGQLASIFLDQKCQNILQGNFKPDFYLKYIQKDLRLAIALGDAVNHPTPMAAAANEVYKRAKALDQSDNDMSAVYRAYIH
B4 returned a transcription stimulation with calf thymus DNA and yeast Pol II ([α-32P]CTP incorporation), against wild-type hNDF of 50 % reduction.
